Eight molecules from patent US20090291088A1 (Biogen, published 2009) can be followed below.

Numbering of substitutions follows the chain as printed.

Assay [1] concerns the target T1, human IGF-1R(1-902)-His10 (human, UniProt P08069 31-932).
T1 construct: Cy5-labelled in tr-FRET; also called hIGF-1R-His10; IGF-1R-His
Kind of assay: protein ELISA. For orientation: In an ELISA, binding on a coated surface is turned into a signal by an enzyme label.

In assay [2] the target is T2, human IGF-1R expressed on cells (human, UniProt P08069 31-1367).
T2 construct: On MCF-7 tumor cells or on 3T3/CHO transfectants; precursor is processed into alpha and beta subunits; Signal peptide 1-30 left out as stated; also called wild type IGF-1R; IGF-1R 3T3
The assay can be described thus: binding to MCF-7 tumor cells.

Assay [3] addresses T2, human IGF-1R expressed on cells. Kind of assay: cell-based or functional assay.
The target in assay [4] is T3, murine IGF-1R expressed on cells (mouse, UniProt Q60751 31-1373).
T3 construct: whole, on cells; also called mouse IGF-1R
T3 sequence (Q60751 31-1373): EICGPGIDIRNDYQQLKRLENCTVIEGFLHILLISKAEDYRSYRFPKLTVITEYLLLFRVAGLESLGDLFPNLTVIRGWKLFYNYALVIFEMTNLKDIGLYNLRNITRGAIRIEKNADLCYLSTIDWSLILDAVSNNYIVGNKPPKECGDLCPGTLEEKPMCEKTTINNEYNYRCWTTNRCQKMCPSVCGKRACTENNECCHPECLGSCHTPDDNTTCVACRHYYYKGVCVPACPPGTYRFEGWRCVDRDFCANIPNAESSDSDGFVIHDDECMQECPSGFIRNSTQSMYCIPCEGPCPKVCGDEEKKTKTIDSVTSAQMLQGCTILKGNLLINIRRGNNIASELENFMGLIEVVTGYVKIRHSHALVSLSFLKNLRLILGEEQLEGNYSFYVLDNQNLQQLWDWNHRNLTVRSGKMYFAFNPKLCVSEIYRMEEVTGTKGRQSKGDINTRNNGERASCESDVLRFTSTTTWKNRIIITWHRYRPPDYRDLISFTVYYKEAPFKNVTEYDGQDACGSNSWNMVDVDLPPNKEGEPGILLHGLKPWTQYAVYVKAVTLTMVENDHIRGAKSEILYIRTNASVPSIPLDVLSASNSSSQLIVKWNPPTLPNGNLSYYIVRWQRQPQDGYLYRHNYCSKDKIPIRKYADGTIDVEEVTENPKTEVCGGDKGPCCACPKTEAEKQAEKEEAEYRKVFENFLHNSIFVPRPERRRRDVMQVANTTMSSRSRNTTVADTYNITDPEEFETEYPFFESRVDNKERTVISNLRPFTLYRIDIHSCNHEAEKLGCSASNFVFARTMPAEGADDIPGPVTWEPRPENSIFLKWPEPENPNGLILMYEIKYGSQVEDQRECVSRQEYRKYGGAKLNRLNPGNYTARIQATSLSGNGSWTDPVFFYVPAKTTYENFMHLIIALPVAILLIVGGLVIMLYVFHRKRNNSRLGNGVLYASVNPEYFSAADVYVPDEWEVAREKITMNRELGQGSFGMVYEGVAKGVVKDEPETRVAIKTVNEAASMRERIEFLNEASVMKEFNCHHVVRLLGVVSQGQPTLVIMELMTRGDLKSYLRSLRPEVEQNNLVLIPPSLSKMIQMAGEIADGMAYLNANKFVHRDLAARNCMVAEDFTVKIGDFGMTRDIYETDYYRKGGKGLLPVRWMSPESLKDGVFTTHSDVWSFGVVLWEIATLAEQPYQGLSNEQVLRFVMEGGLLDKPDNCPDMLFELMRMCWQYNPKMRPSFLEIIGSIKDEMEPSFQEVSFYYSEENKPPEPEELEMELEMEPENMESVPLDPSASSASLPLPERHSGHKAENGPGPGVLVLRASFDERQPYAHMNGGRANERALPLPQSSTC
Kind of assay: binding to CHO transfectants.

The target of assay [5] is T4, Rhesus IGF-1R expressed on CHO cells (rhesus monkey, UniProt I2CWY3 31-1367).
T4 construct: whole, on cells; also called Rhesus IGF-1R/CHO
T4 sequence (I2CWY3 entry or part of it): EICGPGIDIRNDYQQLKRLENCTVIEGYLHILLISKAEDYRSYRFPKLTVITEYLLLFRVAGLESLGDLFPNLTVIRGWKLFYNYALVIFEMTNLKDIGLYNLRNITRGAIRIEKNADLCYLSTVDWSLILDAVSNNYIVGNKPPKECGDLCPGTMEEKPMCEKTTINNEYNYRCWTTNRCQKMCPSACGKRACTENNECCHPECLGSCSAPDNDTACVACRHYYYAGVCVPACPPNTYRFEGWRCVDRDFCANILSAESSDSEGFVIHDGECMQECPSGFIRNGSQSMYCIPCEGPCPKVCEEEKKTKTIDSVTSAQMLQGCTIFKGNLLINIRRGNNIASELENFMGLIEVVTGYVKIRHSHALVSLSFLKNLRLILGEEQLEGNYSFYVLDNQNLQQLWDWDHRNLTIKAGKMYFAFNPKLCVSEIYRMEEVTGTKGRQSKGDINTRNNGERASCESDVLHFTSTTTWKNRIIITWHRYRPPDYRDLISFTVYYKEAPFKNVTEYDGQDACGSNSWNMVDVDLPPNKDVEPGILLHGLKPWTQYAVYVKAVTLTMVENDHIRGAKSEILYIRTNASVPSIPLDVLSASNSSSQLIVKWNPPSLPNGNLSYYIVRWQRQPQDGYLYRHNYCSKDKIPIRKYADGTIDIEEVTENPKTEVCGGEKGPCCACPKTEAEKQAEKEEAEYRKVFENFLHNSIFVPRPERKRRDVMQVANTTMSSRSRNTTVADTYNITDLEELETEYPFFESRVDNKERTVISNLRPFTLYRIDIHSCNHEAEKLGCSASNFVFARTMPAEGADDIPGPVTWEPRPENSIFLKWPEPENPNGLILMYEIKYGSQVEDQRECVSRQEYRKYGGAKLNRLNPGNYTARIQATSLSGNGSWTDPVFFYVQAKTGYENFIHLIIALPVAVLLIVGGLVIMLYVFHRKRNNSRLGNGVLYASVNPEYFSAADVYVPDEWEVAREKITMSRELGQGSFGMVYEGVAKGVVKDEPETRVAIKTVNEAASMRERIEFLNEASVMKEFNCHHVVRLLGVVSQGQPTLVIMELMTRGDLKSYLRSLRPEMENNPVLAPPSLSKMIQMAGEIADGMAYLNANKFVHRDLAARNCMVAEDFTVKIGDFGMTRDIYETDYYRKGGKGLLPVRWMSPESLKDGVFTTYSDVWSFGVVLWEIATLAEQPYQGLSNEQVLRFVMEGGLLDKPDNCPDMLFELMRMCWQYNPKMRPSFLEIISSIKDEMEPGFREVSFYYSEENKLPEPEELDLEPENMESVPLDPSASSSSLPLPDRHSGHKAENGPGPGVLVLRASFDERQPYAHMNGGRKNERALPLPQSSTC
The assay can be described thus: flow cytometry and confocal microscopy, CHO transfectants.

Assay [6] deals with T5, human IGF-1R(1-903)-Fc (human, UniProt P08069 31-933).
T5 construct: Made by Biogen Idec; Multimerises through IGF-1R and Fc; also called hIGF-1R-Fc; IGF-1R-Fc; not shown: C-terminal human IgG1-Fc tag
Kind of assay: ELISA, plate coated with soluble IGF-1 receptor Fc fusion protein, detection with anti-human kappa-HRP. The method, then: The plate was washed with phosphate-buffered saline (PBS, Irvine Scientific, Cat#9240), pH 7.4 plus 0.025% Tween 20 in the Skan Washer 300 (Skatron Instruments), blocked with buffer containing 1% nonfat milk, 0.05% Tween 20 in PBS, pH 7.4, and then incubated at room temperature for 1 hour. After incubation plate was washed with PBS plus 0.025% Tween 20 in the Skan Washer 300. […] Following a one hour incubation at room temperature, plate was washed with PBS plus 0.025% Tween 20 in the Skan Washer 300. […] Plate incubated for 1 hour at room temperature was washed with PBS plus 0.025% Tween 20 in the Skan Washer 300. […] The absorbance was measured at 450 nm, background 540 nm for TMB using the Molecular Devices plate reader. Data was analyzed using the SOFTMAX PRO software package version 4.3 LS (Molecular Devices Corp.).

The target in assay [7] is T1, human IGF-1R(1-902)-His10. The assay can be described thus: SPR, antibody over captured IGF-1R-10His. The method, then: All surface plasmon resonance (SPR) experiments were performed on a Biacore 3000 set to 25° C. using HBS-EP (Biacore, Cat. No. BR-1001-88) as the running buffer. A biotin-labeled anti-HisTag antibody (biotin-PENTA-His, Qiagen Cat. No. 34440) was immobilized to saturation on a Biacore SA chip (Cat. No. BR-1000-32) surface by injection at 500 nM in HBS-EP buffer. […] Subsequent to IGF-1R injections, flow rates were increased to 20 μL/min. A second, 130 μL injection of anti-IGF-1R antibody or Fab was performed to investigate interactions with the receptor. Each antibody and Fab was serially diluted from 64 nM to 0.5 nM to obtain concentration dependent kinetic binding curves. Each injection series was regenerated using 3×10 μL injections of 10 mM Acetate, pH 4.0, at 20 μL/min. Each curve was double referenced using (1) data obtained from a streptavidin surface devoid of IGF-1R and (2) data from a primary injection of IGF-1R followed by a secondary injection of HBS-EP buffer. The concentration series for each antibody and Fab was fit to the 1:1 binding model provided within the BiaEvaluation software of the manufacturer.
The rates at which the antibodies accumulate on the IGF-1R coated surface when applied at various concentrations as well as the rates at which they dissociated during applications of pure buffer were investigated by fitting the data to a 1:1 binding model. Approximate kinetic rate constants and equilibrium dissociation constant were calculated (Table 14).
For orientation: In SPR one partner is held on a chip, and binding of the other changes the refractive index at the surface.

Assay [8] concerns the target T5, human IGF-1R(1-903)-Fc. Kind of assay: ELISA on hIGF-1R-Fc, competitor Zenon-labelled αIR3.
Assay [9] deals with T5, human IGF-1R(1-903)-Fc. Kind of assay: ELISA on hIGF-1R-Fc, competitor biotinylated M14-G11.
Assay [10] addresses T6, human insulin receptor expressed in mammalian cells (UniProt P06213 28-1382, limits assumed).
T6 construct: whole, on cells; Cells were solubilised with Triton X-100 before immunoprecipitation; also called INSR; IR
The assay can be described thus: immunoprecipitation from IR CHO lysate, western blot with mouse anti-human IR. The method, then:
Recombinant IGF-1R and insulin receptor (IR) were independently expressed in mammalian cells (3T3 or CHO). […] Antibody/antigen complexes were released from the beads by acid treatment, applied to Tris-Glycine SDS-PAGE gels and blotted to nitrocellulose membranes. Detection was performed using mouse anti-human IR (FIG. 24A) or mouse anti-human IGF-1R (FIG. 24B) and goat α-mouse IgG.

Assay [11] concerns the target T2, human IGF-1R expressed on cells. The assay can be described thus: flow cytometry, MCF-7 cells. The method, then: The ability of Fabs to bind to the wild type IGF-1R was determined by flowcytometry using MCF-7 tumor cell line.
MCF-7 cells (Human Breast Adenocarcinoma from NCI) were split 24 hours prior to the setup of the assay to obtain 70% confluent monolayer. Routinely, MCF-7 cell line was maintained within 20 passages. Cells were lifted with cell dissociation buffer (Gibco catalog #13151-014), counted, washed and adjusted to 1×10⁶ cells/ml and one ml of cells were then added to each tube (12×75 mm tube Falcon catalog# 352054). Cells were pelleted and supernatant removed by centrifugation at 1200 rpm for 5 min and 100 μl of diluted antibodies were then added to the cell pellet. Purified Fabs were tested at a starting concentration of either 210 or 60 μg/ml with 1:3 dilutions in FACS buffer, down to 0.001 μg/ml. FACS buffer used throughout the assay was PBS (without Ca++/Mg++) containing 1% BSA (Sigma catalog# A-7906; Sigma-Aldrich Corp. (St. Louis, Mo., USA)) and 0.1% Sodium Azide (Sigma catalog #S2002). […] Samples were allowed to incubate on ice for 1 hour and 15 minutes then were washed with 2 ml FACS buffer and centrifuged at 1200 rpm for 5 minutes at 4° C. The supernatant was aspirated and 100 μl of the secondary detection antibody was added to each corresponding tube in FACS buffer. Samples were then incubated for 30 minutes on ice, in the dark. Cells were washed as described above, then, re-suspended in […] FACS buffer per tube/sample.
Cells were stained for live cell determination with Propidium Iodide staining solution (PI for dead cell exclusion; BD Pharmingen catalog# 51-66211E or 556463; use at 1:500 final in FACS buffer). Samples were run on the FACSCalibur instrument (Becton Dickinson) with 10,000 live events collected per sample.
In general terms: Flow cytometry measures light scatter and fluorescence of single cells or particles in a stream.

The target of the next assay is T7, human INSR(28-956)-His10 (human, UniProt P06213 28-956).
T7 construct: range 28-956; Bought (R&D Systems 1544-IR); also called rh-INSR; soluble insulin receptor
The assay can be described thus: ELISA, plate coated with rh-INSR. The method, then:
ELISA assays were performed to determine specific binding of the Fab fragment antibodies to soluble IGF-1R over the insulin receptor. […] Color development was stopped by addition of 4NH₂SO₄ and optical density is measured at 450 nm using a Molecular Devices plate reader and binding curves are generated.

B1: P2A7.3E11 (antibody, IgG2a, V domains shown)
VH: QVQLQQSGPELVKPGASVKMSCKASGNTFTDYVINWVKQRTGQGLEWIGEIYPGNENTYYNEKFKGKATLTADKSSNTAYMQLSSLTSEDSAVYFCARGIYYYGSRTRTMDYWGQGTSVTVSS
VL: EVVLTQSPTAMAASPGEKITITCSASSTLSSNYLHWYQQKPGFSPKLLIYRTSNLASGVPGRFSGSGSGTSYSLTIGTMEAEDVATYYCQQGSSIPLTFGAGTKLELK
notes: Murine hybridoma antibody, IgG2a/k; also called muP2A7
Usually EC50 stands for the concentration at which the effect is half-maximal. A low value points to an effect from little substance. With B1, the EC50 in assay [1] is 0.011 nM; in [2], 0.447 nM.

B2: M14-G11.G4.P (antibody, human IgG4, V domains shown)
VH: EVQLLESGGGLVQPGGSLRLSCAASGFTFSNYPMYWVRQAPGKGLEWVSRISSSGGRTVYADSVKGRFTISRDNSKNTLYLQMNSLRAEDTAVYYCARDRWSRSAAEYGLGGYWGQGTLVTVSS
VL: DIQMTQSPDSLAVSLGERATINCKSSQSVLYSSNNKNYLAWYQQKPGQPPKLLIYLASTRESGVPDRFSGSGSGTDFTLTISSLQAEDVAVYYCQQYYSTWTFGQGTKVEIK
notes: Full-length human IgG4.P, kappa; also called M14.G11.P; G4 version of M14-G11
What is called EC50 (read off the curve) is the concentration that produces a half-maximal response. A low value points to an effect from little substance. For B2, the “inhibition of IGF-1 and IGF-2 mediated IGF-1R receptor phosphorylation (EC50)” value in [3] was below 1 nM. Besides, the binding result in [4] and in assay [5] was “binds” throughout. Also, the “EC50 (read off the curve)” value in the assay with human IGF-1R(1-903)-Fc [6] is around 0.06 nM.

B3: M14-G11.G4.P.agly (antibody, human IgG4 S228P, kappa, V domains shown)
VH: B2 VH
VL: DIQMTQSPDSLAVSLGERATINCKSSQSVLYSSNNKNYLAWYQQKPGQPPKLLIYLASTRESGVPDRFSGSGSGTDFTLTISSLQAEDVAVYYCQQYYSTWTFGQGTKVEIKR
notes: Full-length human aglycosylated IgG4.P, kappa; Places that say only 'M14-G11 antibody' were assigned to this version; also called M14-G11_Ab; Biotin-G11
The Kd is the equilibrium constant for the complex coming apart. One may read the koff as the rate constant with which the complex falls apart. Higher therefore signals a short-lived complex. What is called kon is the rate constant with which the complex forms. A high value points to fast association. In assay [7], B3 yielded a Kd of 0.11 nM, an off-rate (koff) of 0.00011 s⁻¹ and a kon of 1e+06 M⁻¹ s⁻¹. Also, the “percent competition (relative to self-competition)” value with human IGF-1R(1-903)-Fc [8] fell in the range of 50 to 70%. Besides, the “percent competition (relative to self-competition)” value with human IGF-1R(1-903)-Fc [9] fell in the range of 90 to 100%. Moreover, the binding result in assay [10] is listed as “no binding”. The “EC50 (read off the curve)” value with human IGF-1R(1-903)-Fc [6] was around 0.06 nM.

B4: P1A2.2B11 (antibody, IgG2b, V domains shown)
VH: QIQLVQSGPELKKPGETVKISCKASGYTFTNHGMNWVKQAPGKGLKWMGWNTSTGEPTYADDFKGRFAFSLETSASTAFLQINNLKNEDTASYFCASPLYYMYGRYIDVWGAGTAVTVSS
VL: DIQMTQTTSSLSASLGDRVTISCRASQDISNYLNWYQQKPDGTIKLLIYYTSRLHSGVPSRFSGSGSGTDYSLTISNLEQEDFATYFCQQGKTLPWTFGGGTKLEIK
notes: Murine hybridoma antibody, IgG2b/k
As for B4, the values for the EC50 in [1] and in [2] were 0.023 nM and 1.1 nM, respectively.

B5: P1G10.2B8 (antibody, IgG1, V domains shown)
VH: QIQLVQSGPDLKKPGETVKISCKASGYTFTNHGMNWVKQAPGKDLKWMGWINTNTGEPTYADDFKGRFAFSLETSASTAYLQINNLKNEDTATYFCASPLYYRNGRYFDVWGAGTTVTVSS
VL: B4 VL with T43S, I44V, F83I
notes: Murine hybridoma antibody, IgG1/k
Turning to B5, the half-maximal effective concentration (EC50) is 0.075 nM in assay [1] and 2.06 nM in assay [2].

B6: M12-G04.G4.P (antibody, human IgG4, V domains shown)
VH: EVQLLESGGGLVQPGGSLRLSCAASGFTFSKYTMHWVRQAPGKGLEWVSSIVSSGGWTDYADSVKGRFTISRDNSKNTLYLQMNSLRAEDTAVYYCARDRSIAAAGTGWSVSFVDWFDPWGQGTLVTVSS
VL: DIQMTQSPLSLSASVGDRVTITCRASQSINGYLNWYQQKPGKAPNLLIYATSSLQSGVPSRFSGSGSGTDFTLTISSLQPEDFATYYCQQSYSTPPYTFGQGTKLEIK
notes: Full-length human IgG4.P, kappa; also called G4 version of M12-G04
B6: the “EC50 (read off the curve)” value in the assay with human IGF-1R(1-903)-Fc [6] was around 0.2 nM.

B7: M12-G04 Fab (Fab, V domains shown)
VH: B6 VH
VL: B6 VL
notes: Human phage Fab, kappa
The molecule B7 came in with an EC50 in assay [11] of 25 nM. For the same molecule, in the assay with human INSR(28-956)-His10, the binding result is recorded as “no binding (tested: about 5000 nM)”.

B8: P1E2.3B12 (antibody, IgG2b, V domains shown)
VH: QVQLQQPGAELVKPGASVKLSCKASGYTFTSYWMHWVKQRPGQGLEWIGEINPTYGRSNYNEKFKSKATLTVDKSSSTAYMQLSSLTSEDSAVYYCARLVRLRYFDVWGAGTTVTVSS
VL: DIVMTQAAFSNPVTLGTSASISCRSSKSLLHSNGITYLYWYLQKPGQSPQLLIYQMSNLASGVPDRFSSSGSGTDFTLRISRVEAEDVGVYYCAQNLELPYTFGGGTKLEIK
notes: Murine hybridoma antibody, IgG2b/k; also called P1E2 (hybridoma)
For B8, the EC50 came out at 0.016 nM in [1] and 0.391 nM in assay [2].
